Residue numbers refer to the chain shown, from its start.
Legend:
DH10B E. coli cells = experiment: Promoter activity: constitutive GFP reporter expression without AtzR; format: cell-based; conditions: for transcriptional activity compared with WT promoter, measured by reporter expression: E. coli, promoter only, no AtzR; for GFP reporter expression of cells carrying only the promoter: no AtzR present, rich and minimal media
Procedure: Fluorescence measurement: To measure promoter activities, transformed reporter plasmids (including WT promoter plasmid) were transformed into DH10B cells (NEB) using electroporation and plated cells on LB agar plates with kanamycin (50 ug/mL). After overnight growth at 37° C., at least 3 individual colonies were selected for each reporter plasmid and inoculated into 150 μL LB medium with 50 μg/mL kanamycin in a 96-well plate. After 3 hours of growth at 37° C. in a multi-plate shaker (1100 rpm, Southwest Science), cells were diluted 1:50 into 150 μL LB medium or MOPS medium (supplemented with 0.4% glucose and 1× BME vitamin) with 50 μg/mL kanamycin in a 96-well plate. Cells were grown at 37° C. with shaking (1100 rpm). After 16 hours, OD600 and fluorescence (excitation at 488 nm and emission at 520 nm with a gain of 40) of each well was measured using a multi-well plate reader (Synergy HTX, BioTek .Inc). Fluorescence was normalized against OD600. Blank (normalized fluorescence of cells carrying no GFP) was subtracted from those measurements. Mean and standard deviation of each reporter plasmid activity were calculated from measurements of 3 biological replicates.

AtzR [1] = experiment: Fold repression of GFP reporter by co-expressed AtzR; format: cell-based; conditions: minimal medium
Procedure: (§1) To measure fold repression, each reporter plasmid was co-transformed with low and high copy sensor plasmid separately. The end results include two test versions for each reporter plasmid: (the reporter plasmid, low copy sensor plasmid), (the reporter, high copy sensor plasmid), reporter plasmids were transformed with either of the sensor plasmids. Similar to the process of measuring promoter activity, the activities of at least 3 biological replicates were measured for each reporter and sensor plasmid pair. The only difference was that 50 μg/mL kanamycin and […] Spectinomycin were used to maintain both of the reporter and sensor plasmids. The fold repression was calculated as a ratio of the fluorescence of reporter divided by the fluorescence of this reporter when it was paired with a sensor plasmid. To measure fold induction, the process of obtaining fold repression was followed. The only difference was the addition of 200 μM cyanuric acid during the growth. The fold induction was calculated as a ratio of the fluorescence of the induced state divided by the fluorescence of the repressed state.

AtzR [2] = experiment: Fold induction of GFP reporter by cyanuric acid with co-expressed AtzR; format: cell-based; conditions: for response to cyanuric acid (inducibility) / fold activation (ratio of GFP with and without cyanuric acid): 200 μM cyanuric acid; for response to cyanuric acid (inducibility) / uninduced baseline (no cyanuric acid): AtzR co-expressed; for increase in reporter expression in response to cyanuric acid: E. coli, medium not stated
Procedure: as §1

AtzR [3] = experiment: Cyanuric acid dose response and visual detection limit of the AtzR biosensor; format: cell-based, E. coli DH10B; conditions: for cyanuric acid concentration at which signal begins to saturate: rich and minimal media (125 ppm)
Procedure: To obtain transfer functions of various reporter and sensor plasmid pairs, different concentrations of cyanuric acid were delivered via DMSO to cultures (less than 1% of the total volume). After growth for 16 hours, fluorescence was measured and normalized similar to previous experiments.
Visual detection limit: To determine the visual detection limit in LB and MOPS media, E. coli DH10B with or without constitutive GFP expression was grown in LB with appropriate antibiotics for 16 hours in […] on a shaker(1100 rpm). Two 2 mL aliquots from each culture were spun down at 5000 G for 5 minutes in a benchtop centrifuge at room temperature. The media was aspirated out and the cell pellets resuspended in either 2 mL LB or 2 mL MOPS media. The spin-down and resuspension procedure was repeated two more times. Then, cells without GFP in LB (or MOPS) were mixed with cells carrying GFP in LB (or MOPS) to 150 μL with various ratios (cells without GFP-cells with GFP: 100%-0%, 95%-5%, 90%-10%, 85%-15%, 70%-30%, 55%-45%, 30%-70%, 0%-100%). After measuring the fluorescence and OD600 of the mixed cultures in a 96-well plate, the cultures were transferred to ultra-thin strip tubes ordered by increasing percentage of cells carrying GFP. Five individuals were asked to identify the culture that they could be confident to tell apart (in terms of the color of the culture) from the culture containing no cells with GFP (100%-0%). The identification process for cultures in LB and MOPS was performed by placing culture tubes in front a piece of white paper. The weighted average of fluorescence of cultures was identified by five individuals for cultures in LB and MOPS. The calculated weights averages were defined and used as the visual detection limits in FIGS. 7-10 related experiments.

AtzR, sequence (as listed by the source): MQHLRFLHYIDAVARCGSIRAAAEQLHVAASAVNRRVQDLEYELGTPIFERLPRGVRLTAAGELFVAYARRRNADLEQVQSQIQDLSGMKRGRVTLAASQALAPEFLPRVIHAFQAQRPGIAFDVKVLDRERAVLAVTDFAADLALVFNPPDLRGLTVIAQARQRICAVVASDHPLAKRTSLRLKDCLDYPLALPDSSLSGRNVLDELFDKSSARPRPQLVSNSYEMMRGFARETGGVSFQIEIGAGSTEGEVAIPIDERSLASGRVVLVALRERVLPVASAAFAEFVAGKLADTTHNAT

In the case of “Promoter 10: group 2 promoter variant; apFAB spacer replaced with RBS L and R (DNA TTGACAGGTGCCGGATCGGCACCTATAATAGATTCATGATGA; expressed or natural sequence)”, the “transcriptional activity compared with WT promoter, measured by reporter expression” value (DH10B E. coli cells) is reported as “transcriptionally more active than WT promoter”, the “fold repression (ratio of GFP expression without and with AtzR)” value (AtzR [1]) is reported as 50 fold and the “response to cyanuric acid (inducibility)” value (AtzR [2]) is reported as “lack of cyanuric acid response”. For the same molecule, the “increase in reporter expression in response to cyanuric acid” value (shortened to “increase in reporter expression”) (AtzR [2]) was “greater than two-fold increase”.

“Promoter 12: group 2 promoter variant, sequence SEQ ID NO: 14 (DNA GGTGCCGACACGGCACCTTTTTGTACCTATAATAGATTCATGATGA; expressed or natural sequence)” was tested, and the “transcriptional activity compared with WT promoter, measured by reporter expression” value (DH10B E. coli cells) was “transcriptionally more active than WT promoter”.

For “Promoter 13: group 2 promoter variant; apFAB spacer replaced with RBS in R-L orientation (DNA TTGACAGGTGCCGATCCGGCACCTATAATAGATTCATGATGA; expressed or natural sequence)”, the “transcriptional activity compared with WT promoter, measured by reporter expression” value (DH10B E. coli cells) was “transcriptionally more active than WT promoter” and the “increase in reporter expression” value (AtzR [2]) was “greater than two-fold increase”.

For “Promoter 15: group 2 promoter variant; RBS placed upstream of -35 (DNA GGTGCCGATCCGGCACCTTGACATCGCATCTTTTTGTACCTATAATAGATTCATGATGA; expressed or natural sequence)”, the “transcriptional activity compared with WT promoter, measured by reporter expression” value (DH10B E. coli cells) was “transcriptionally more active than WT promoter”, the “lower threshold of detection of cyanuric acid” value (“lower threshold” for short) (AtzR [3]; minimal media) was ~15 µM and the “cyanuric acid concentration at which signal begins to saturate” value (shortened to “cyanuric acid concentration”) (AtzR [3]) was 1 mM. For the same molecule, the “lower threshold” value (AtzR [3]; rich media) was ~25 µM.

For “Promoter 16: group 2 promoter variant, sequence SEQ ID NO: 18 (DNA GGTGCCGATCCGGCACCTTTTTGTACCTATAATAGATTCATGATGA; expressed or natural sequence)”, the “transcriptional activity compared with WT promoter, measured by reporter expression” value (DH10B E. coli cells) was “transcriptionally more active than WT promoter”.

B1: Promoter 1: group 1 promoter variant; Pseudomonas -10 site replaced with consensus E. coli -10 site (nucleic acid)
DNA: ATGCGAGTCAAAGCAAGATCGGTGCCGGATCGGCACCAGTTAGGTCGGAAAAAGGCGGCAGTCAAGTGCGCAGGGCGGCGTTATAATTGAACGAA
modifications: expressed or natural sequence
notes: group 1 promoter variant; Pseudomonas -10 site replaced with consensus E. coli -10 site
B1 was tested, and the “transcriptional activity compared with WT promoter, measured by reporter expression” value (DH10B E. coli cells) was “transcriptionally more active than WT promoter”, the “lower threshold” value (AtzR [3]; minimal media) was ~15 µM and the “cyanuric acid concentration” value (AtzR [3]) was 1 mM. For the same molecule, the “lower threshold” value (AtzR [3]; rich media) was ~25 µM.

B2: Promoter 11: group 2 promoter variant; RBS placed upstream of -35 (nucleic acid)
DNA: CAAGATCGGTGCCGGATCGGCACCAGTTAGGTCTTGACATCGCATCTTTTTGTACCTATAATAGATTCATGATGA
modifications: expressed or natural sequence
B2 was tested, and the “transcriptional activity compared with WT promoter, measured by reporter expression” value (DH10B E. coli cells) was “transcriptionally more active than WT promoter”.

B3: Promoter 2: group 1 promoter variant; sequence 3' of ABS 3 replaced with corresponding region of apFab71 (nucleic acid)
DNA: TCGGTGCCGGATCGGCACCAGTTAGGTCGGAAAAAGGCGGCAGTCAAGTGCGCTTTTTGTACCTATAATAGATTCATGATGA
modifications: expressed or natural sequence
With B3 the “transcriptional activity compared with WT promoter, measured by reporter expression” value (DH10B E. coli cells) was “transcriptionally more active than WT promoter”, the “response to cyanuric acid (inducibility)” value (AtzR [2]) was “inducible” and the “fold activation (ratio of GFP with and without cyanuric acid)” value (AtzR [2]; medium not specified) was “approximately 10 fold”. For the same molecule, the “fold activation (ratio of GFP with and without cyanuric acid)” value (AtzR [2]; minimal media) was 15 fold, the “increase in reporter expression” value (AtzR [2]) was “greater than two-fold increase” and the “uninduced baseline (no cyanuric acid)” value (AtzR [2]) was “about 4000 fluorescence units”. For the same molecule, the “lower threshold” value (AtzR [3]; minimal media) was ~15 µM, the “cyanuric acid concentration” value (AtzR [3]) was 1 mM and the “lower threshold” value (AtzR [3]; rich media) was ~25 µM.

B4: Promoter 5: group 1 promoter variant with consensus E. coli -35 and apFab71 3' sequence, on a high-copy number plasmid (nucleic acid)
DNA: B3 DNA with T44A
In the case of B4, the “transcriptional activity compared with WT promoter, measured by reporter expression” value (DH10B E. coli cells) is reported as “transcriptionally more active than WT promoter”, the “fold activation (ratio of GFP with and without cyanuric acid)” value (AtzR [2]; medium not specified) is reported as “approximately 10 fold” and the “increase in reporter expression” value (AtzR [2]) is reported as “greater than two-fold increase”. The “uninduced baseline (no cyanuric acid)” value (AtzR [2]) was 22000 fluorescence units.

B5: Promoter 6: group 1 promoter variant with consensus E. coli -35 and apFab71 3' sequence, on a low-copy number plasmid (nucleic acid)
DNA: B3 DNA with T44A
B5 was tested, and the “transcriptional activity compared with WT promoter, measured by reporter expression” value (DH10B E. coli cells) was “transcriptionally more active than WT promoter”, the “fold repression (ratio of GFP expression without and with AtzR)” value (AtzR [1]) was 10 fold and the “fold activation (ratio of GFP with and without cyanuric acid)” value (AtzR [2]; medium not specified) was “approximately 10 fold”. The “increase in reporter expression” value (AtzR [2]) was “greater than two-fold increase”.

B6: Promoter 14: group 2 promoter variant, sequence SEQ ID NO: 16 (nucleic acid)
DNA: GACCTAACTGGTGCCGATCCGGCACCGATCTTGTTGACATCGCATCTTTTTGTACCTATAATAGATTCATGATGA
modifications: expressed or natural sequence
B6 was tested, and the “transcriptional activity compared with WT promoter, measured by reporter expression” value (DH10B E. coli cells) was “transcriptionally more active than WT promoter”.

B7: Promoter 7: group 1 promoter variant of presumed intermediate strength, -35 site mutated toward E. coli consensus (nucleic acid)
DNA: TCGGTGCCGGATCGGCACCAGTTAGGTCGGAAAAAGGCGGCAGACAAGTGCGCTTTTTGTACCTATATAGATTCATGATGA
modifications: expressed or natural sequence
B7 was tested, and the “transcriptional activity compared with WT promoter, measured by reporter expression” value (DH10B E. coli cells) was “transcriptionally more active than WT promoter” and the “GFP reporter expression of cells carrying only the promoter” value (DH10B E. coli cells) was “highest expression”.

B8: Promoter 3: group 1 promoter variant weakened by deleting a single base from the -10 site (nucleic acid)
DNA: B7 DNA with A44T
modifications: expressed or natural sequence
B8 was tested, and the “response to cyanuric acid (inducibility)” value (AtzR [2]) was “only promoter variant 2 was inducible”.

B9: Promoter 8: group 1 promoter variant of presumed intermediate strength, -35 site mutated toward E. coli consensus (nucleic acid)
DNA: B7 DNA with T68A
modifications: expressed or natural sequence
With B9 the “transcriptional activity compared with WT promoter, measured by reporter expression” value (DH10B E. coli cells) was “transcriptionally more active than WT promoter”, the “GFP reporter expression of cells carrying only the promoter” value (DH10B E. coli cells) was “highest expression” and the “increase in reporter expression” value (AtzR [2]) was “greater than two-fold increase”.

B10: Promoter 4: group 1 promoter variant weakened by deleting a single base from the -10 site (nucleic acid)
DNA: B7 DNA with A44T, T68A
modifications: expressed or natural sequence
For B10, the “response to cyanuric acid (inducibility)” value (AtzR [2]) was “only promoter variant 2 was inducible”.

— patent US20200239927A1, “SENSOR FOR CYANURIC ACID DETECTION” (WISCONSIN ALUMNI RESEARCH FOUNDATION, priority 2019, published 2020)
